Test results as given in article PMC3893233.

Key:
Test in all cases: SPR
[1] = target: hemi-YWA variant
[2] = target: homo-DLE variant (of Table 1, compared with control mAb1)
[3] = target: homo-DLE variant (of Table 2, prepared by control mAb2)
[4] = target: homo-L235V/F243L/R292P/Y300L/P396L (VLPYLL) variant
[5] = target: afucosyl mAb

Row | Substance | Kd [1] | Kd [2] | Fold KD = KD (control mAb2)/KD (Fc variant) [3] | Fold KD = KD (control mAb2)/KD (Fc variant) [4] | Fold KD = KD (IgG1)/KD (Fc variant) [5]
1 | human FcγRIIIa^F158, extracellular region (from UniProt P08637 17-208) (receptor) | 280 nM | 5.5 nM |  |  | 
2 | human FcγRIIb, extracellular region (from UniProt P31994 43-217) (receptor) |  |  | 6.7 fold | 0.54 fold | 
3 | human FcγRIIa^H131, extracellular region (from UniProt P12318 34-217) (receptor) |  |  | 1.4 fold |  | 0.85 fold
4 | human FcγRIa, extracellular region (from UniProt P12314 16-292) (receptor) |  |  | 3.4 fold |  | 
5 | human FcγRIIa^R131, extracellular region (receptor) |  |  | 2.9 fold |  | 1.8 fold
6 | human FcγRIIIa^V158, extracellular region (receptor) |  |  | 126 fold | 33 fold | 45 fold
